Laboratory results published in patent US20240158457A1, “INTERLEUKIN-18 RECEPTOR BINDING POLYPEPTIDES AND USES THEREOF” (Medikine, Inc., priority 2022, published 2024).

Biological target: human IL-18 receptor (alpha and beta subunits) on HEK-BLUE IL-18 reporter cells (human) (UniProt Q13478)
Assay: cell-based or functional assay

Chain of human IL-18 receptor (alpha and beta subunits) on HEK-BLUE IL-18 reporter cells (human) (Q13478 19-541, chain 1 of 2): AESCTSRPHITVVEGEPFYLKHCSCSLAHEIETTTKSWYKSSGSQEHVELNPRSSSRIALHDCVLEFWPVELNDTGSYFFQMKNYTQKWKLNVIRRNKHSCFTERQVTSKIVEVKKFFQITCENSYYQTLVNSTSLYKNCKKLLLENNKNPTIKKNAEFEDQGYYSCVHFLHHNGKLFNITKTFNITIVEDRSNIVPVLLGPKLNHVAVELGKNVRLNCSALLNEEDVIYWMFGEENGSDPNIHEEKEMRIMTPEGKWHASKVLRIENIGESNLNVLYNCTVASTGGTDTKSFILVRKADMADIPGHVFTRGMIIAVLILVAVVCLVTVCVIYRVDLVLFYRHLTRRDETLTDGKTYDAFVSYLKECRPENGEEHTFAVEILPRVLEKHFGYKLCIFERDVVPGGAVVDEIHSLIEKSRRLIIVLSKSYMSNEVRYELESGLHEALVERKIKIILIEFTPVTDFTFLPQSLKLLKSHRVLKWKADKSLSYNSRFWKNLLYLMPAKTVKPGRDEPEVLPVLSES
Chain of human IL-18 receptor (alpha and beta subunits) on HEK-BLUE IL-18 reporter cells (human) (O95256 20-599, chain 2 of 2, further chain): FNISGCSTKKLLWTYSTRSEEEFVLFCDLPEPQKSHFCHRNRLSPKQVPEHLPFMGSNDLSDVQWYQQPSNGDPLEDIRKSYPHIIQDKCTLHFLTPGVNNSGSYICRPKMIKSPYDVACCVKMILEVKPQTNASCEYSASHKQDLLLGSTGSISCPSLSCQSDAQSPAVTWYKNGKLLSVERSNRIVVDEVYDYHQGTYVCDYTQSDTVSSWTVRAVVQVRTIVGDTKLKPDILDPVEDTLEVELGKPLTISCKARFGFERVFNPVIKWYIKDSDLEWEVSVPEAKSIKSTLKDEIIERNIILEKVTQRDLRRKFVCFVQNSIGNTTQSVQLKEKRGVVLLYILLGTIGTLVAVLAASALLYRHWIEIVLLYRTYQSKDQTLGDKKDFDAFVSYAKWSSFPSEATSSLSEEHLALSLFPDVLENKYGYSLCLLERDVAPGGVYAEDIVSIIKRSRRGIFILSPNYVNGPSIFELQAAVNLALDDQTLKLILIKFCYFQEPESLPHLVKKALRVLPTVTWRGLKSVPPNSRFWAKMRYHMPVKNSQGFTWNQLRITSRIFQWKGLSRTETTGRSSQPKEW

- EC50, NF-κB reporter activity in HEK-BLUE IL-18 cells: 0.38 pM
Substance: Human recombinant IL-18 (R&D Systems #9124-IL-050/CF) (from UniProt Q14116 1-193) (ligand)
